Here are results for 25 molecules from article PMC6379675, “Structural insights into chromosome attachment to the nuclear envelope by an inner nuclear membrane protein Bqt4 in fission yeast” (Nucleic Acids Research, 2018).

Test [1] deals with T1, Bqt4_(2–180) (S. pombe, UniProt O60158 2-180).
T1 chain: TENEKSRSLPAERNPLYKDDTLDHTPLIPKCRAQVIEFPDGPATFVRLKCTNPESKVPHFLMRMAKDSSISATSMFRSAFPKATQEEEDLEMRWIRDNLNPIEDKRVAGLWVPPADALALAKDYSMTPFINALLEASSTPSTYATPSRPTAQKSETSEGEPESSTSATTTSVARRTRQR
As to the kind of experiment: ITC. In general terms: ITC needs no label: the signal is the heat of the interaction.

In test [2] the target is T2, Bqt4_(2–140), N-terminal domain of Bqt4 (S. pombe, UniProt O60158 2-140).
T2 chain: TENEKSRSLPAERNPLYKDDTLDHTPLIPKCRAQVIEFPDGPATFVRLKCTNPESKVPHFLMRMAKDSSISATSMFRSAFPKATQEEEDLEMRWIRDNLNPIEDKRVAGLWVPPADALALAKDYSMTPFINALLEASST
In words: ITC.

The target of test [3] is T3, Bqt4_(2–140), N-terminal domain of Bqt4 (S. pombe, UniProt O60158 2-140).
T3 construct: Bqt4, S. pombe inner nuclear membrane protein, residues 2-140; also called Bqt4NTD; Bqt4NTD^WT; source: E. coli BL21(DE3), purified (Ni-NTA, on-beads Ulp1 digestion, Superdex200); not shown: His6, N-terminal, cleaved; SUMO, N-terminal, cleaved
T3 sequence (looked up): T2 chain
In words: ITC; ITC200; peptide (Rap1 479-527 at 1000–1500 μM) titrated into Bqt4 2-140 (100–150 μM), 20°C, 20 mM Tris–HCl pH 8.0, 150 mM NaCl; one binding site model; two independent experiments. The conditions noted are these: both partners purified.

In test [4] the target is T4, Bqt4_(2–180) (S. pombe, UniProt O60158 2-180).
T4 construct: Bqt4, S. pombe, residues 2-180; also called N-terminal region of Bqt4; source: E. coli BL21(DE3), purified (Ni-NTA, on-beads Ulp1 digestion, Superdex200); not shown: His6, N-terminal, cleaved; SUMO, N-terminal, cleaved
T4 sequence (looked up): T1 chain
The description is as above. The conditions noted are these: both partners purified.

Another test deals with T5, Bqt4NTD^R48E (S. pombe, UniProt O60158 2-140, R48E).
T5 sequence: T2 chain with R47E
As to the kind of experiment: ITC.

For another test, the target named is T6, Bqt4NTD D90R (S. pombe, UniProt O60158 2-140, D90 into arginine).
T6 sequence: T2 chain with D89R
In words: ITC.

The target of the next test is T7, Bqt4NTD R33A (S. pombe, UniProt O60158 2-140, R33A).
T7 sequence: T2 chain with R32A
As to the kind of experiment: ITC.

In test [5] the target is T8, Bqt4NTD^F61A (S. pombe, UniProt O60158 2-140, F61A).
T8 sequence: T2 chain with F60A
In words: ITC.

Test [6] addresses T2, Bqt4_(2–140), N-terminal domain of Bqt4. In words: ITC.
Test [7] has as its target T3, Bqt4_(2–140), N-terminal domain of Bqt4. As to the kind of experiment: fluorescence polarisation; competition: FITC-labeled Lem2BBM pre-mixed with Bqt4NTD (4°C, 1 h), unlabeled peptides from 10 nM to 200 μM added; 25 mM Tris–HCl pH 8.0, 150 mM NaCl, 10% glycerol; 25°C. The following applies: both partners purified. (In fluorescence polarisation assays a small probe gives low polarisation when free and higher when bound to something large.)

For test [8], the target named is T2, Bqt4_(2–140), N-terminal domain of Bqt4. As to the kind of experiment: ITC.
For test [9] the target is unchanged. In words: FP; competition with FITC-Lem2BBM.
Test [10] has the same target. In words: ITC.
In test [11] the target is T8, Bqt4NTD^F61A. As to the kind of experiment: ITC. This is another data set of the same source.

Substitutions are numbered along the chain they refer to. Names may count otherwise. Like-named read-outs stand apart in the source and are kept apart here. Bounds are passed on as bounds.

B1: Rap1_(490–513), Bqt4-binding motif of Rap1 (peptide, UniProt Q96TL7 490-513, looked up)
chain: ENISEKSSDDEEAFEKQVTSSYSS
notes: 3C cleavage leaves extra N-terminal residues; also called Rap1BBM; source: E. coli BL21(DE3), purified (glutathione-Sepharose 4B, on-beads 3C digestion, Superdex75); not shown: GST, N-terminal, cleaved
Usually Kd stands for the free concentration of one partner at which half of the binding sites on the other are occupied at equilibrium, for simple one-to-one binding. A lower Kd goes with higher affinity. For B1, the Kd with Bqt4_(2–180) [1] was found to be 11 µM; in test [2], 11.4 µM. For the same molecule, the binding result (in test [3]; in the test with Bqt4_(2–180) [4]) was “binds” each time.

B2: Sad1 (residues 88–101) (peptide, UniProt Q09825 88-101, looked up)
chain: SDNEEFENVVKNGH
notes: Sad1, S. pombe spindle pole body-associated protein, residues 88-101 (14 residues); 3C cleavage leaves extra N-terminal residues; also called Sad1BBM; Sad1_(88–101); source: E. coli BL21(DE3), purified (glutathione-Sepharose 4B, on-beads 3C digestion, Superdex75); not shown: GST, N-terminal, cleaved
On to B2, for which the Kd with Bqt4NTD^R48E was 262 µM; in test [3] it was 3700 nM.

B3: Rap1_(220-606) (protein)
chain: SVSKSENKALVNNKRYSDSYFYFSKMRRISIDVDYVDEDLNLINAYLSQFGKKRSLNELCALLSRRFSNRHTFSEWRALFMHFFPFINSEGVDPAILSDRETSAMLDETSDNEVADIDDQMIERKYLFSASEPNTVKSTNRLIFSERKAYAADDSIDNTPSKVPIVNSLSDPRTNRPFFYSNPDSMYRSISNPLHLVDSQHLSPLNRKTHFNNPIGQPQFTCLDDHEKTLRETSFRSLDDMSLRKSNSDNIFVKPGEDLEIPLLSDYSDSENISEKSSDDEEAFEKQVTSSYSSPIKVKSQGKSSKGSSGLDVREHEGSDDDAEVFVDRSPESFGATKVAHTSLEGNAASHKKVEENMQQPVTKKQKKYRMVNEEAHTGPTIIIPSD
Turning to B3, the values for the Kd (with Bqt4_(2–180) [1]; in [2]) were 12.9 µM and 13.7 µM, respectively.

B4: Rap1_(403-541) (protein)
chain: DSMYRSISNPLHLVDSQHLSPLNRKTHFNNPIGQPQFTCLDDHEKTLRETSFRSLDDMSLRKSNSDNIFVKPGEDLEIPLLSDYSDSENISEKSSDDEEAFEKQVTSSYSSPIKVKSQGKSSKGSSGLDVREHEGSDDD
With B4, the results for the equilibrium dissociation constant (Kd) (in the test with Bqt4_(2–180) [1]; in test [2]) were 5.4 µM and 4.8 µM, respectively.

B5: Rap1_(468-541) (protein)
chain: DNIFVKPGEDLEIPLLSDYSDSENISEKSSDDEEAFEKQVTSSYSSPIKVKSQGKSSKGSSGLDVREHEGSDDD
As to B5, the Kd with Bqt4_(2–180) [1] was 7.9 µM; in test [2], 5.7 µM.

B6: Rap1_(479–527) (domain or fragment, S. pombe, UniProt Q96TL7 479-527, looked up)
chain: EIPLLSDYSDSENISEKSSDDEEAFEKQVTSSYSSPIKVKSQGKSSKGS
notes: also called Rap1^WT; wild-type Rap1; source: E. coli BL21(DE3), purified (glutathione-Sepharose 4B, on-beads 3C digestion, Superdex75); not shown: GST, N-terminal, cleaved
By IC50 is commonly meant the midpoint of a concentration-inhibition curve. B6: the Kd with Bqt4NTD D90R came to 14.4 µM; with Bqt4NTD R33A it was 12.3 µM; in the test with Bqt4NTD^F61A [5] it was 909 µM; in [6] it was 11.4 µM. The “fold by which the Bqt4-Lem2 interaction is stronger than this pair” value in test [3] turned out to be 20 fold. In test [7], this molecule yielded a concentration for half-maximal inhibition (IC50) of 50.9 µM. EIPLLSDYSDSENISEKSSDDEEAFEKQATSSYSSPIKVKSQGKSSKGS (domain or fragment) [Rap1_(479–527) V507A] yielded a dissociation constant Kd in [6] of 138 µM. In turn, EIPLLSDYSDSENISEKSSDDEEAFEKQVTSSYESPIKVKSQGKSSKGS (domain or fragment) [Rap1_(479–527) S512E] had a Kd in [8] of 27.2 µM. EIPLLSDYSDSENISEKSSDAAEAFEKQVTSSYSSPIKVKSQGKSSKGS (domain or fragment) [Rap1_(479–527) D499A/E500A] came in with a Kd in test [6] of 862 µM. Regarding EIPLLSDYSDSENISEKSSDDEEAFEKQVTSSYASPIKVKSQGKSSKGS [Rap1_(479-527) S512A], in [8], the dissociation constant (Kd) amounted to 7.1 µM. On the same count and under the same terms, the value for EIPLLSDYSDSENISEKSADDEEAFEKQVTSSYSSPIKVKSQGKSSKGS [Rap1_(479-527) S497A] was 9.5 µM. Still for that read-out and setting: under EIPLLSDYSDSENISEKASDDEEAFEKQVTSSYSSPIKVKSQGKSSKGS [Rap1_(479-527) S496A] stands 10.6 µM; under EIPLLSDYSDSENISEKSSDDEEAFEKQVTSSYSAPIKVKSQGKSSKGS [Rap1_(479-527) S513A], 7.9 µM. As for EIPLLSDYSDSENISEKSSDDEEAAEKQVTSSYSSPIKVKSQGKSSKGS (domain or fragment) [Rap1_(479–527) F503A], the affinity in [6], expressed as Kd, was 106 µM. In turn, EIPLLSDYSDSENISEKSSDDEEAFEKQVTSSYAAPIKVKSQGKSSKGS [Rap1_(479-527) S512A/S513A] yielded a dissociation constant (Kd) in [8] of 7.3 µM. EIPLLSDYSDSENISEKAADDEEAFEKQVTSSYSSPIKVKSQGKSSKGS [Rap1_(479-527) S496A/S497A] showed a Kd in test [8] of 8 µM.

B7: Rap1_(479–527) (S496E/S497E) (domain or fragment, S. pombe, UniProt Q96TL7 479-527, looked up)
chain: B6 chain with S18E, S19E
notes: phosphomimetic; also called Rap1^S496E/S497E; source: E. coli BL21(DE3), purified (glutathione-Sepharose 4B, on-beads 3C digestion, Superdex75); not shown: GST, N-terminal, cleaved
For the molecule B7, the Kd in test [8] is 0.9 µM. This molecule registered an IC50 in [9] of 6.8 µM. Moreover, the “fold increase in binding affinity against wild-type Rap1” value in test [3] worked out at 10 fold.

B8: Rap1_(479–527) S496E (domain or fragment, S. pombe, UniProt Q96TL7 479-527, looked up)
chain: B6 chain with S18E
notes: phosphomimetic; also called Rap1^S496E; source: E. coli BL21(DE3), purified (glutathione-Sepharose 4B, on-beads 3C digestion, Superdex75); not shown: GST, N-terminal, cleaved
The molecule B8 displayed an equilibrium dissociation constant (Kd) in test [8] of 2.4 µM. Further, the binding result in [3] is listed as “binds”.

B9: Rap1_(479–527) S512E/S513E (domain or fragment, S. pombe, UniProt Q96TL7 479-527, looked up)
chain: B6 chain with S34E, S35E
notes: phosphomimetic; also called Rap1^S512E/S513E; source: E. coli BL21(DE3), purified (glutathione-Sepharose 4B, on-beads 3C digestion, Superdex75); not shown: GST, N-terminal, cleaved
In turn, B9 had a Kd in test [8] of 115 µM. The molecule further had a concentration for half-maximal inhibition (IC50) in test [9] above 200 µM. Moreover, the “fold decrease in binding affinity against wild-type Rap1” value in test [3] was determined as 10 fold.

B10: Rap1_(490-541) (protein)
chain: ENISEKSSDDEEAFEKQVTSSYSSPIKVKSQGKSSKGSSGLDVREHEGSDDD
Regarding B10, the Kd with Bqt4_(2–180) [1] amounted to 9.7 µM; in [2], 8.3 µM.

B11: Rap1_(468-527) (protein)
chain: DNIFVKPGEDLEIPLLSDYSDSENISEKSSDDEEAFEKQVTSSYSSPIKVKSQGKSSKGS
Turning to B11, the Kd was found to be 8.7 µM with Bqt4_(2–180) [1] and 5.8 µM in [2]. The matching figures for KSSDDEEAFEKQVTSSYSSPIKVKSQGKSSKGS [Rap1_(495-527)]: 15.3 µM and 14.7 µM.

B12: Rap1_(468-519) (protein)
chain: DNIFVKPGEDLEIPLLSDYSDSENISEKSSDDEEAFEKQVTSSYSSPIKVKS
As to B12, the Kd with Bqt4_(2–180) [1] was 10.8 µM; in [2], 6.6 µM. In test [10], SESSSPYSEVDSAEEDDELFQNYVLQQTRK [Lem2_(250-279)] registered a Kd of 340 nM.

B13: Lem2_(261–279) (peptide, UniProt Q10109 261-279, looked up)
chain: SAEEDDELFQNYVLQQTRK
notes: 3C cleavage leaves extra N-terminal residues; also called Lem2BBM; source: E. coli BL21(DE3), purified (glutathione-Sepharose 4B, on-beads 3C digestion, Superdex75); not shown: GST, N-terminal, cleaved
For the molecule B13, the Kd with Bqt4NTD^F61A [11] is 46 µM; in the test with Bqt4NTD^R48E it was 3.2 µM; in [3] it was around 530 nM. Moreover, the IC50 in test [7] was 1.2 µM.
